This is an account of results in US20070036796A1 (ROCHE PALO ALTO, published 2007).

Changes are numbered by the printed parent chain.

Assay [1] has as its target T1, human CCR5 (human, UniProt P51681 1-352).
T1 construct: whole, on cells; also called CC chemokine receptor CCR5; CD 195
Put plainly: epitope mapping with alanine mutants of CCR5.

Assay [2] deals with T1, human CCR5. The assay is described as follows: cell-based or functional assay.
The target in assay [3] is T1, human CCR5. Put plainly: cell-based or functional assay. The source holds these as a separate data set.
The target of assay [4] is T1, human CCR5. The assay is described as follows: cell ELISA on CCR5-expressing cells, hybridoma screening. Background: ELISA stands for enzyme-linked immunosorbent assay.

T1 sequence (P51681 whole entry): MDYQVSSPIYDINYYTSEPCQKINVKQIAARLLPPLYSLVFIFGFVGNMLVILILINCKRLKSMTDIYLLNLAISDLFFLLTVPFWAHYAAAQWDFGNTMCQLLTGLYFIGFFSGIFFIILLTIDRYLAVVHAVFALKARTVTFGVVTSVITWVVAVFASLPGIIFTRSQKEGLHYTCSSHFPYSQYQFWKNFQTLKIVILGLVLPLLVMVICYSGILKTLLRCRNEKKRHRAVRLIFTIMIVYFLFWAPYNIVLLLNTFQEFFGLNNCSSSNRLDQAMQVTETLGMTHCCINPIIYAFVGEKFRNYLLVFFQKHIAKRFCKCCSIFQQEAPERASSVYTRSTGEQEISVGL

B1: <CCR5>Pz03.1C5 (antibody, V domains shown)
VH: QVQLKQSGPGLVRPSQSLSITCTVSGFPLGIFGVHWVRQSPGKGLEWLGVIWKGGNTDYNAAFMSRLRITKDNSKSQVFFRMNSLQTDDTAIYYCAKVNLADAMDYWGQGTSVIVSS
VL: DIQMTQSPASLSASVGETVTITCRASGNIHGYLAWFQQKQGKSPQLLVYNTKTLAEGVPSRFSGSGSGTQFSLKINSLQPEDFGNYYCQHHYDLPRTFGGGTKLEIKR
notes: also called Antibody C; m<CCR5>Pz03.1C5
In the case of B1, the binding result with human CCR5 [1] is listed as “binds”. Further, in the assay with human CCR5 [2], the “IC50, PhenoSenseHIV assay (ViroLogic) using JRCSF strain” value turned out to be 0.16 µg/ml and the “IC50, cell-cell fusion assay (gp160-expressing HeLa cells with CEM.NKR-CCR5-Luc cells, luciferase)” value came to 0.38 µg/mL. In the assay with human CCR5 [3], the “IC50, inhibition of HIV growth in human PBMC, JRCSF (p24 ELISA)” value is 0.013 µg/mL and the “IC50, inhibition of HIV growth in human PBMC, Nl-Bal (p24 ELISA)” value was found to be 0.029 µg/mL.

B2: <CCR5>Pz02.1C11 (antibody, V domains shown)
VH: B1 VH with I31V, T70S
VL: B1 VL with A25S, T53A, S77N, N85I
notes: also called Antibody B
As to B2, in the assay with human CCR5 [2], the “IC50, PhenoSenseHIV assay (ViroLogic) using JRCSF strain” value worked out at 0.17 µg/ml and the “IC50, cell-cell fusion assay (gp160-expressing HeLa cells with CEM.NKR-CCR5-Luc cells, luciferase)” value is 0.79 µg/mL. The binding result with human CCR5 [4] is reported as “binds”. Moreover, in the assay with human CCR5 [3], the “IC50, inhibition of HIV growth in human PBMC, JRCSF (p24 ELISA)” value turned out to be 0.025 µg/mL and the “IC50, inhibition of HIV growth in human PBMC, Nl-Bal (p24 ELISA)” value was determined as 0.025 µg/mL.
